These results are taken from patent US11319366B2, “Antibody facilitating programmed necrosis of cells and application thereof” (SHANGHAI JW INFLINHIX CO., LTD., priority 2015, dated 2022).

One experiment concerns L929 cells. Kind of experiment: Apoptosis and necrosis assay (live/dead staining, active caspase-3, flow cytometry) in L929 cells. The format is cell-based, mouse. Here is the method: (§1) The cells were stained with live/dead cell staining kits (Invitrogen, Paisley, UK) instructed by the manufacturer's manual and fixed using cytofix/cytoperm fixation/permeabilization solution kits (BD Pharmingen, Oxford, UK). This was followed by intracellular staining with FITC-conjugated anti-caspase-3 antibody (Cell Signaling Technology, Danvers, Mass., USA). Cells were acquired on a CyAn flow cytometer (Beckman Coulter, Fullerton, Calif.) and data were analyzed using Flowjo (Tree Star Inc. Ashland, Oreg.).
In general terms: Flow cytometry measures light scatter and fluorescence of single cells or particles in a stream.

Experiment [1] deals with TNF receptors on L929 cells. Kind of experiment: L929 cells immunofluorescence (confocal) microscopy of TNF/antibody binding to TNF receptors. The format is cell-based, mouse. Here is the method: The cells were fixed with 4% paraformaldehyde (in PBS) for 10 min, blocked in a phosphate-buffer containing 0.5% BSA and 0.1% cold water fish-gelatin for 15 min and subsequently incubated with rabbit anti-TNFR1 antibodies (Abcam) for 1 hour. The cells were extensively washed in PBS and then incubated with the relevant secondary antibodies, which were conjugated with Alexa Fluor 488 or Alexa Fluor 568 21 (Invitrogen). PBS-washed specimens were then mounted in Gelvatol/DABCO (Sigma-Aldrich). DNA was counterstained with DAPI (Sigma-Aldrich). All samples were analyzed by fluorescent microscopy using a Nikon Eclipse 80i at 60×. Images were acquired with NIS-Elements AR3.0 software using a Hamamatsu camera.

Experiment [2] concerns the target T1, TNF (Homo sapiens, UniProt P01375).
T1 construct: purchased Immunotools (Germany)
As to the kind of experiment: Identification of binding epitope of the monoclonal antibody.

For experiment [3], the target named is T1, TNF. As to the kind of experiment: ELISA screening of monoclonal antibodies for binding to TNF. The note with it: among 33 monoclonal antibodies. Here is the method: A second antibody conjugated with HRP was used to detect the reaction. For the inhibition assay, TNFR1 or synovial fluids were added together with monoclonal antibodies.
Background: ELISA stands for enzyme-linked immunosorbent assay.

In experiment [4] the test system is C28I2 cells (chondrocytes). Kind of experiment: Apoptosis assay (active caspase-3) in C28I2 cells. The format is cell-based, human. The note with it: C28I2 cells stimulated by TNF. The procedure:
as §1

Entries after “also recorded” stand apart in the source; their conditions may differ.

T1 sequence (P01375 77-233 limits assumed): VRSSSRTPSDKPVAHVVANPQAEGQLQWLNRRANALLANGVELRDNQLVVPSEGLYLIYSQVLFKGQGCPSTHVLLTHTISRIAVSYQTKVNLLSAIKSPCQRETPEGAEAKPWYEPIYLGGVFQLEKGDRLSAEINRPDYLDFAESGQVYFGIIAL

As to `CN1C(=O)C(Cc2c[nH]c3ccccc23)NC1=S` (centres unmarked) [Nec-1, Necrostatin-1, reference compound], the “effect on necrosis caused by 244-12+TNF” value with L929 cells (L929 cells, added into 244-12+TNF) was “cell necrosis was conversed into apoptosis; also recorded: cell necrosis transformed into apoptosis”.

B1: 244-12: anti-TNF monoclonal antibody specifically binding QLVVPSE; light chain SEQ ID NO: 10, heavy chain SEQ ID NO: 21 (antibody, listed as Homo sapiens)
heavy: QIQLVQSGPELKKPGETVKISCKASGYTFTNYGMNWVKQAPGKGLKWMGWINTYTGEPTYADDFKGRFAFSLETSANTAYLQINNLRNEGMATYFCARHYRYAWFPYWGQGTLVTVSAAKTTPPSVYPLAPGCGDTTGSSVTLGCLVKGYFPESVTVTWNSGSLSSSVHTFPALLQSGLYTMSSSVTVPSSTWPSQTVTCSVAHPASSTTVDKKLEPSGPISTINPCPPCKECHKCPAPNLEGGPSVFIFPPNIKDVLMISLTPKVTCVVVDVSEDDPDVQISWFVNNVEVHTAQTQTHREDYNSTIRVVSTLPIQHQDWMSGKEFKCKVNNKDLPSPIERTISKIKGLVRAPQVYILPPPAEQLSRKDVSLTCLVVGFNPGDISVEWASNGHTEENYKDTAPVLDSDGSYFIYSKLNMKTSKWEKTDSFSCNVRHEGLKNYYLKKTISRSPGK
light: DIQMTQSPASLSASVGETVTITCRASGNIHIYLAWYQQKQGKSPQLLVYNAKTLADGVPSRFSGSGSGTQYSLKINSLQPEDFGSYYCQHFWSIPWTFGGGTKLEIKRADAAPTVSIFPPSSEQLTSGGASVVCFLNNFYPKDINVKWKIDGSERQNGVLNSWTDQDSKDSTYSMSSTLTLTKDEYERHNSYTCEATHKTSTSPIVKSFNRNEC
For B1, the “effect on binding of TNF to TNF receptors” value in experiment [1] (confocal microscopy, in the presence of TNF) is “does not affect the binding of TNF to cell surface receptors”. For the same molecule, in experiment [1] (in the absence of TNF), the “direct binding of antibody to cell surface” value is “can not directly bind to cell surface”. The binding epitope entry with TNF [2] was “QLVVPSE”. Also, the “binding to TNF by ELISA” value with TNF [3] is given as “bound TNF the strongest”. Besides, the entries for the “TNF-induced apoptosis (active caspase-3 expression)” value (in the experiment with L929 cells (L929 cells stimulated by TNF); in experiment [4]) were “apoptosis was inhibited; also recorded: blocks TNF-induced apoptosis” and “blocks TNF-induced apoptosis”, respectively. Besides, the “cell fate (apoptosis / survival / necrosis) of L929 cells” value in the experiment with L929 cells (L929 cells, TNF alone or antibody added with TNF) is “necrosis of L929 cells occurred; also recorded: necrosis of L929 cell”.
